Results on two molecules are retold here after paper PMC11924222, “Integrated Study of Fluorescence Enhancement in the Y176H Variant of Cyanobacterial Phytochrome Cph1” (Biochemistry, 2025).

By pKa is commonly meant the negative logarithm of the acid dissociation constant.

For one series, the target named is His260 (UniProt position 260, SAYHCHLTYLK). The experiment in a line: not stated for the pKa value; the article cites resonance Raman, MAS NMR and absorption studies. The following applies: Pr (dark-adapted) state, PCB-bound holoprotein; cited from earlier work.
Series [1] concerns the molecule itself. The experiment in a line: crystal structure; X-ray, 3.7 Å; crystals grown in 0.3 M ammonium formate, 0.1 M HEPES pH 6.9, 18% Sokalan CP7; four protomers in the asymmetric unit.

“Phytochrome-like protein Cph1 (cyanobacterial phytochrome 1), photosensory module, wild type (Synechocystis sp. PCC 6803)”: the pKa in the series with His260 is 7.5.

B1: Cph1 Y176H variant of the Cph1 photosensory module (residues 1-514; NTS, nPAS, GAF and PHY domains), crystallization construct with N141R (domain or fragment, Synechocystis 6803, UniProt Q55168 1-514, looked up)
chain: MATTVQLSDQSLRQLETLAIHTAHLIQPHGLVVVLQEPDLTISQISANCTGILGRSPEDLLGRTLGEVFDSFQIDPIQSRLTAGQISSLNPSKLWARVMGDDFVIFDGVFHRNSDGLLVCELEPAYTSDNLPFLGFYHMARAALNRLRQQANLRDFYDVIVEEVRRMTGFDRVMLHRFDENNHGDVIAEDKRDDMEPYLGLHYPESDIPQPARRLFIHNPIRVIPDVYGVAVPLTPAVNPSTNRAVDLTESILRSAYHCHLTYLKNMGVGASLTISLIKDGHLWGLIACHHQTPKVIPFELRKACEFFGRVVFSNISAQEDTETFDYRVQLAEHEAVLLDKMTTAADFVEGLTNHPDRLLGLTGSQGAAICFGEKLILVGETPDEKAVQYLLQWLENREVQDVFFTSSLSQIYPDAVNFKSVASGLLAIPIARHNFLLWFRPEVLQTVNWGGDPNHAYEATQEDGKIELHPRQSFDLWKEIVRLQSLPWQSVEIQSALALKKAIVNLILRQAEE
modifications: phycocyanobilin (PCB) chromophore covalently attached to Cys259
notes: Cyanobacterial phytochrome Cph1 from Synechocystis 6803, photosensor residues 1-514 (NTS, nPAS, GAF and PHY domains), with Y176H and, for crystallization, N141R; PDB 2VEA is the wild-type parent; not shown: His6, N-terminal, cleaved
In the case of B1, the binding result in series [1] was “binds”.
